Positions of bridges follow the written chain, without caps; N, C: chain ends. Chains are numbered I, II in the order given. No end group written: not given here.
Biological target: preformed MYC/MAX heterodimer (human | , UniProt P61244 1-160)
Assay: FP

Sequence of preformed MYC/MAX heterodimer (chain, as listed by the source, chain 1 of 2): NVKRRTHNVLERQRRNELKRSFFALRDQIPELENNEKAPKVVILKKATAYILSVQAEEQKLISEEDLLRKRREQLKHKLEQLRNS
Sequence of preformed MYC/MAX heterodimer (P61244 2-160, chain 2 of 2): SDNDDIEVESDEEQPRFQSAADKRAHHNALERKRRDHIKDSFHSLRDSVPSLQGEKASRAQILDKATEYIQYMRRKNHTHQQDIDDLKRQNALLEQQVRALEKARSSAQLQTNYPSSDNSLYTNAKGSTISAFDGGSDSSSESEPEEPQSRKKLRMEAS

B1: fluorescein-labeled CHD^Max-1 (cross-linked helix dimer derived from MAX) (designed binder)
chain 1: LREKIATLQWCIEELRK
chain 2: LRRKNETHQWEIEELC
modifications: bridge I:11-II:16; not fully specified (bridges); also: fluorescein label, chain and position not given here
- Kd: 460 nM
